Results taken from US20070142283A1.

Target: recombinant FGF-2 (rFGF-2) of SEQ ID NO: 2 (bovine) (UniProt P03969)
Assay: commercial ELISA for human FGF-2 (R&D Systems), cross-reactivity against human FGF-2

Sequence of UniProt P03969 (P03969 10-155 limits assumed): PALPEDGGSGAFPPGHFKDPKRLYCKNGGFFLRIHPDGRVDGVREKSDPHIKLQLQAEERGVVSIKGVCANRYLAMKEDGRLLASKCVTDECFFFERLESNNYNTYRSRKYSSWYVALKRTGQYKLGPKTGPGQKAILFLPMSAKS

cross-reactivity: 100%
Substance: commercially available ELISA (R&D Systems, Minneapolis Minn.) that was marketed for analysis of human FGF-2 (antibody)
